Measurements: article PMC11855334, “Exploring the Potential of Glutathione Reductase Overexpression to Improve Tellurium Nanoparticle Production in Escherichia coli” (International Journal of Molecular Sciences, 2025)

B1: glutathione reductase from E. coli (enzyme, UniProt P06715 1-450, looked up)
chain: MTKHYDYIAIGGGSGGIASINRAAMYGQKCALIEAKELGGTCVNVGCVPKKVMWHAAQIREAIHMYGPDYGFDTTINKFNWETLIASRTAYIDRIHTSYENVLGKNNVDVIKGFARFVDAKTLEVNGETITADHILIATGGRPSHPDIPGVEYGIDSDGFFALPALPERVAVVGAGYIAVELAGVINGLGAKTHLFVRKHAPLRSFDPMISETLVEVMNAEGPQLHTNAIPKAVVKNTDGSLTLELEDGRSETVDCLIWAIGREPANDNINLEAAGVKTNEKGYIVVDKYQNTNIEGIYAVGDNTGAVELTPVAVAAGRRLSERLFNNKPDEHLDYSNIPTVVFSHPPIGTVGLTEPQAREQYGDDQVKVYKSSFTAMYTAVTTHRQPCRMKLVCVGSEEKIVGIHGIGFGMDEMLQGFAVALKMGATKKDFDNTVAIHPTAAEEFVTMR
notes: glutathione reductase (GR) of Escherichia coli; cloned in earlier work of the same laboratory; also called E. coli GR; GR; source: E. coli C41 (DE3), purified (HisTrap HP)
B2: glutathione reductase from Psychrobacter immobilis strain BNF08 (enzyme)
chain: MTKHYDYIAIGGGSGGIASINRAASYGKKCAVIEANQLGGTCVNLGCVPKKVMWYGAQIAEAIHKYAPDYGFNVDVKGFDFQKLVQSRQQYIENIHRSYDNNLAKNGVEVIKGFAKFVDTNTVEVNGELITADHILIATGGHPIQPDIKGAEYGIDSDGFFALNHLPKRVAIVGAGYIAVEIAGVLNSLGAEVHLYVRQHSPLRSFDHSVVEALLIEMEQDGIQLHTNTTLTEVNKNEDGSLTLCTENGSLDTTDCLIWAIGRAPSTDNINLQVTGVETNEIGKIKVDKFQNTNVKNIYAVGDIIENSVDLTPVAIAAGRRLSERLFNNKPNEHLDYTLIPTVIFTHPAIGTIGLSEIDAVERYGKENIKCYKSTFTSMYSAVTQHRQKCMMKLVCLGDEEKVIGLHGLGFGVDEMIQGFAVAIKMGATKADFDNTVAIHPTGSEEFVTMR
B3: glutathione reductase from Enterobacter cloacae strain MF01 (enzyme)
chain: MTKHYDYIAIGGGSGGIASINRAAMYGQKCALIEAKALGGTCVNVGCVPKKVMWHAAQIREAIHMYGPDYGFDTTINHFDWEKLIASRTAYIDRIHTSYDNVLGKNNVDVIHGFARFVDAKTIEVNGETITADHILIATGGRPSHPNIPGAEYGIDSDGFFVLPALPERVAVVGAGYIAVELAGVINGLGAEAHLFVRKHAPLRSFDPLIVDTLVEVMNTEGPTLHTNAVPKAVIKNADGSLTLELEDGRSQTVDCLIWAIGREPANDNFNLAVTGVKTDEKGYIVVDKFQNTSVPGIYAVGDNTGAVELTPVAVAAGRRLSERLFNNKPDEHLDYSNIPTVVFSHPPIGTVGLTEPQAREQYGDDQVKVYKSAFTAMYTAVTSHRQPCRMKLVCVGPEEKIVGIHGIGFGMDEILQGFAVALKMGATKKDFDNTVAIHPTAAEEFVTMR

Key:
[1] = biological target: glutathione reductase from Pseudomonas lini strain BNF22 (Pseudomonas lini (strain BNF22)); assay: SEC; Superdex 200; 20 mM sodium phosphate pH 7.4, 200 mM NaCl, 1 mM β-mercaptoethanol; elution times compared to a gel filtration protein standard; homodimer
[2] = biological target: the molecule itself; assay: as above

| Molecule | stoichiometry N [1] | stoichiometry N [2] |
| --- | --- | --- |
| glutathione reductase from Pseudomonas lini strain BNF22 (enzyme) | 2 | – |
| B1 | – | 2 |
| B2 | – | 2 |
| B3 | – | 2 |
